Residue numbers refer to the chain shown, from its start. Blank lines part the entries; values can stand above or below the binder they belong to.
Assays:
human ASIC1 [1] = target: T1, human ASIC1 (human, UniProt P78348 1-528); test: cell-based or functional assay
T1 sequence: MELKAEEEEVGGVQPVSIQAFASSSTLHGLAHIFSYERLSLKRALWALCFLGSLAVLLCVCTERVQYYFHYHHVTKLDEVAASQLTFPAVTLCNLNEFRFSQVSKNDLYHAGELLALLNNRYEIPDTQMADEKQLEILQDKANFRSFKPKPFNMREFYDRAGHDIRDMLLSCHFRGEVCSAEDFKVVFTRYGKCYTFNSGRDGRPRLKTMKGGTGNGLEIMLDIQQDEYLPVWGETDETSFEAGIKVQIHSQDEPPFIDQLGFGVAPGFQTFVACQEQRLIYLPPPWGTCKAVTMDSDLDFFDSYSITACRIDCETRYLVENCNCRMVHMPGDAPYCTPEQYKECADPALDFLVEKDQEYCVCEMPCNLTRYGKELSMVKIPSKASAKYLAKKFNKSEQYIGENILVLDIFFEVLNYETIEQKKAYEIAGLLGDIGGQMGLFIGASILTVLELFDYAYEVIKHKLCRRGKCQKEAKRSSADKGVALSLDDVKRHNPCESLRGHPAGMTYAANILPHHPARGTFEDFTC

human ASIC3 = target: T2, human ASIC3 (human, UniProt Q9UHC3 1-531); test: FACS, 3T3/hASIC3 cells, 10 nM antibody
T2 construct: whole, on cells; Expressed on 3T3 cells (3T3/hASIC3) or HEK293 cells (HEK/hASIC3-QCells); also called hASIC3
T2 sequence (looked up): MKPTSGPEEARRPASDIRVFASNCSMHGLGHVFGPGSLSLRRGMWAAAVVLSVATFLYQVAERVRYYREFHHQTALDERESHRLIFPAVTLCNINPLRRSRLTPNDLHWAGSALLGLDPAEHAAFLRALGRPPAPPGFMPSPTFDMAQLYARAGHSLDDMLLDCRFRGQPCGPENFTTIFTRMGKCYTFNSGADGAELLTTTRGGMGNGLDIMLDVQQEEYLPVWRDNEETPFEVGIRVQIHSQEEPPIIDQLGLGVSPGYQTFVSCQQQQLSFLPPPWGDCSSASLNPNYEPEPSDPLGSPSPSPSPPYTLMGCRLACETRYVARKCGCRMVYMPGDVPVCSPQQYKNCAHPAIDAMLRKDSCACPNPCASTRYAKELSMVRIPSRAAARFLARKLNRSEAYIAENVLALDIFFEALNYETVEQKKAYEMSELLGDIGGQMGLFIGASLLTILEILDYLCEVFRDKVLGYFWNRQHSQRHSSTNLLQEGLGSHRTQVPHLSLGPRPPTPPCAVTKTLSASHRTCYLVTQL
Source text: (§1) For these experiments, four cell lines were constructed: (a) a mouse fibroblast 3T3 cell line stably transfected to overexpress full length human ASIC3 (3T3/hASIC3; amino acids 1-531 of NCBI accession number NP_{—}004760.1), (b) a 3T3 cell line stably transfected to co-express full length human ASIC1a and human ASIC3 (3T3/hASIC1/3; amino acids 1-528 of NCBI accession number NP_{—}001086.2 and amino acids 1-531 of NCBI accession number NP_{—}004760.1), (c) […] a stably transfected 3T3 cell line expressing the full-length mouse ASIC3 channel (3T3/mASIC3; amino acids 1-530 of NCBI accession number NP_{—}892045.2), and (d) a 3T3 cell line stably transfected to co-express full length mouse ASIC1a and mouse ASIC3 (3T3/mASIC1/3; amino acids 1-526 of NCBI accession number NP_{—}033727 and amino acids 1-530 of NCBI accession number NP_{—}892045.2). Antibody binding was determined using flow cytometry (FACS).
(§2) To perform the FACS binding experiments, adherent cells were collected with cold Millipore Accutase 3-5 minutes, spun and resuspended in ice-cold FACS buffer (PBS, 2% HI-FBS and 0.09% Na-azide). Anti-ASIC1 antibody at final concentrations of 10 nM was added for 20-30 minutes on ice. Cells were washed with 900 μL ice-cold FACS buffer, spun, and resuspended in 100 μL ice-cold FACS buffer. A secondary antibody which recognizes human Fc (Jackson Immuno Research, #109-136-098) and is conjugated to allophycocyanin, was then added to the cell mixture at a final concentration of 2.5 ug/mL. After incubating for 20 minutes on ice, the cells were washed and resuspended in FACS buffer, then sorted and analyzed on a flow cytometer (FACSCanto II, BD Biosciences, San Jose, Calif.) to determine relative binding by the candidate antibodies to the tested cell lines. Histograms of cells stained with anti-ASIC1 antibodies were compared with those of cells stained with secondary antibody alone. Percentage of ASIC1 signal over secondary antibody alone was calculated using FlowJo software (Tree Star, Ashland, Oreg.).

[2] = target: T3, human ASIC1/ASIC3 channels (co-expressed human ASIC1a and human ASIC3) (human, UniProt Q9UHC3 1-531); test: FACS, 3T3/hASIC1/3 cells, 10 nM antibody
T3 construct: whole, on cells; 3T3 cells co-expressing both subunits; also called 3T3/hASIC1/3; 3T3-hASIC1/ASIC3
T3 sequence 1: T1 sequence
T3 sequence 2: T2 sequence (looked up)
Source text: as §1, §2

human ASIC1 [3] = target: T1, human ASIC1; test: FACS titration, 3T3/hASIC1 cells
Method: To perform the FACS binding experiments, adherent cells were collected using 1 mM EDTA in PBS, then washed, and re-suspended in cold PBS containing 5% FBS. For each binding experiment, each anti-ASIC1 antibody ([…] or ND7 cells) was added to 250,000 cells in 500 μL of PBS with 5% FBS. After incubation for 20 minutes at room temperature, a secondary antibody which recognizes human Fc (Cat. No. 109-136-098, Jackson ImmunoResearch Laboratories, Inc., West Grove, Pa.) or mouse Fc (Cat. No. 550826, BD Biosciences, San Jose, Calif.) and is conjugated to allophycocyanin, was then added to the cell mixture at a final concentration of 13.3 nM. After incubating for 20 minutes on ice, the cells were washed and resuspended in PBS containing 5% FBS, then sorted and analyzed on a flow cytometer (FACSCalibur, BD Biosciences, San Jose, Calif.) to determine relative binding by the candidate antibodies to the tested cell lines. Histograms of cells stained with anti-ASIC1 antibodies were compared with those of cells stained with secondary antibody alone. Percentage of ASIC1 signal over secondary antibody alone was calculated using FlowJo software (Tree Star, Ashland, Oreg.).

human ASIC1 [4] = target: T1, human ASIC1; test: cell-based or functional assay; remark: listed apart in the source
mouse ASIC1a = target: T4, mouse ASIC1a (mouse, UniProt Q6NXK8 1-526); test: FACS, 3T3/mASIC1a cells
T4 construct: whole, on cells; Expressed on stably transfected 3T3 cells (3T3/mASIC1a); also called mASIC1a
T4 sequence (looked up): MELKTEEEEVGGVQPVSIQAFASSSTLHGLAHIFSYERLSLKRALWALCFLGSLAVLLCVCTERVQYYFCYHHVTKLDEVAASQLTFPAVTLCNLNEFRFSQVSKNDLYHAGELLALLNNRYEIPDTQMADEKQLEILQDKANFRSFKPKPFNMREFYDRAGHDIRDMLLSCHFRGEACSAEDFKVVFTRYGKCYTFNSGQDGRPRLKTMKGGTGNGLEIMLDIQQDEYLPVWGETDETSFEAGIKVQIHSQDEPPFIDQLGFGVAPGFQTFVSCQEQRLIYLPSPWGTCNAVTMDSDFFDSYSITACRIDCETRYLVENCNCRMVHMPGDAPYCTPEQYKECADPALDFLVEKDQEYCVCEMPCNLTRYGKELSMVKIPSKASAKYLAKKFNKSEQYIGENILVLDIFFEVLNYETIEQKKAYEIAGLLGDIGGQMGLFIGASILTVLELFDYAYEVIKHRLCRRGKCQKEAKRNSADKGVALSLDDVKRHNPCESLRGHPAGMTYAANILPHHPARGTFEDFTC
Source text: To further characterize anti-ASIC1 antibodies, their ability to bind either (a) a mouse fibroblast 3T3 cell line stably transfected to overexpress full length human ASIC1 (3T3/hASIC1; amino acids 1-528 of NCBI accession number NP_{—}001086.2 [SEQ ID NO:401]), (b) a 3T3 cell line stably transfected to over express full length mouse ASIC1a (3T3/mASIC1a; amino acids 1-526 of NCBI accession number NP_{—}033727), or (c) a ND7 cell line (ECACC, #92090903) that is a fusion cell line of mouse neuroblastoma and rat dorsal root ganglia that endogenously expresses rat ASIC1, was determined using flow cytometry (FACS). ND7 cells were differentiated by replacing the culture media with low-serum media (0.5% FBS) containing 1 mM dibutyryl-cAMP (Cat. No. sc-201567A, Santa Cruz Biotechnology, Inc., Santa Cruz, Calif.). FACS binding was tested for some antibodies on both undifferentiated ND7 cells and differentiated ND7 cells.
To perform the FACS binding experiments, adherent cells were collected using 1 mM EDTA in PBS, then washed, and re-suspended in cold PBS containing 5% FBS. For each binding experiment, each anti-ASIC1 antibody (at final concentrations of 10 nM of purified antibodies or 3.3 nM for antibody supernatants for binding to 3T3/hASIC1 cells and 5 nM for binding to 3T3/mASIC1a or ND7 cells) was added to 250,000 cells in 500 μL of PBS with 5% FBS. After incubation for 20 minutes at room temperature, a secondary antibody which recognizes human Fc (Cat. No. 109-136-098, Jackson ImmunoResearch Laboratories, Inc., West Grove, Pa.) or mouse Fc (Cat. No. 550826, BD Biosciences, San Jose, Calif.) and is conjugated to allophycocyanin, was then added to the cell mixture at a final concentration of 13.3 nM. After incubating for 20 minutes on ice, the cells were washed and resuspended in PBS containing 5% FBS, then sorted and analyzed on a flow cytometer (FACSCalibur, BD Biosciences, San Jose, Calif.) to determine relative binding by the candidate antibodies to the tested cell lines. Histograms of cells stained with anti-ASIC1 antibodies were compared with those of cells stained with secondary antibody alone. Percentage of ASIC1 signal over secondary antibody alone was calculated using FlowJo software (Tree Star, Ashland, Oreg.).

human ASIC1 [5] = target: T1, human ASIC1; test: cell-based or functional assay; remark: listed apart in the source

Current inhibition (%) at 100 nM antibody, Q-Patch, pH 6.0 (human ASIC1 [1]): 0% | binding result (human ASIC3): binds | binding result [2]: binds | EC50 (human ASIC1 [3]): 1.5 nM
B1: H4H6364P (antibody, human IgG4, V domains shown)
VH: EVQLVESGGGLVQSGGSLRLSCAASGFTFSRYWMSWVRQAPGKGLEWVANIKQDGSEKDYVDSVKGRFTISRDNTKSSLFLQMNSLRAEDTAVYYCAKERWNWNFFDYWGQGTLVTVSS
VL: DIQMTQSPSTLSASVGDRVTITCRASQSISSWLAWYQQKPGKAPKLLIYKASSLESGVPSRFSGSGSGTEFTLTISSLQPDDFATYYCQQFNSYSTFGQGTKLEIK

apparent IC50, human ASIC1 current, Q-Patch (human ASIC1 [4]): ≤ 10 nM | binding result (mouse ASIC1a): binds | Current inhibition (%) at 100 nM antibody, Q-Patch, pH 6.0 (human ASIC1 [1]): 72% | EC50 (human ASIC1 [3]): 1 nM
B2: H4H6366P (antibody, human IgG4, V domains shown)
VH: EVQLVESGGDLIQPGGSLRLSCIASGFTFRGYAMSWVRQAPGEGLDWVSGISSGGGNTYYADSVKGRFTISRDNSKNTLYLQMNSLRVEDTAVYYCAKDRGGVRDFYYGLDVWGQGTTVTVSS
VL: DIQMTQSPSTLSASVGDRVTITCRASQSIYSWLAWYQQKPGKAPKLLIYKASSLESGVPSRFSGSGSGTDFTLTISSLQPDDFTTYYCQQYLSYSRTFGQGTKVEIK

apparent IC50, human ASIC1 current, Q-Patch (human ASIC1 [4]): < 1 nM | binding result (mouse ASIC1a): binds | Current inhibition (%) at 100 nM antibody, Q-Patch, pH 6.0 (human ASIC1 [1]): 97% | EC50 (human ASIC1 [3]): 0.72 nM
B3: H1M7101N (antibody, mouse IgG1, V domains shown)
VH: EVQLLASGGGLVQTGGSLRLSCAASGFTFSSFAMSWVRQAPGKGLEWVSGISGSGGSTYYADSVKGRFTISRDNSKNTLYLQMNSLRAEDTAAYYCAKEAYKWQPWGQGIRVTVSS
VL: B2 VL with Y30S, K45N, A51T, S53N, D70E, T84A, L92N, R96Y, V104L

apparent IC50, human ASIC1 current, Q-Patch (human ASIC1 [4]): < 1 nM | calculated IC50, inhibition of human ASIC1 current, Port-a-Patch (human ASIC1 [4]): 0.86 nM | binding result (mouse ASIC1a): binds | Current inhibition (%) at 100 nM antibody, Q-Patch, pH 6.0 (human ASIC1 [1]): 100% | EC50 (human ASIC1 [3]): 0.55 nM | FLIPR Dose Curve, pH 5.0 % Block (human ASIC1 [5]): 48% | FLIPR Dose Curve, pH 5.5 % Block (human ASIC1 [5]): 78% | FLIPR Dose Curve, pH 5.5 IC50 (human ASIC1 [5]): 0.6 nM
B4: H1M6718N (antibody, mouse IgG1, V domains shown)
VH: B3 VH with A6E, T14P, S57G, Y59H, T78M, L79V, I110T, R111L
VL: B2 VL with T20I, S28R, Y30S, K45N, S53I, D70E, T84A, L92N, R96Y, V104L

Current inhibition (%) at 100 nM antibody, Q-Patch, pH 6.0 (human ASIC1 [1]): 0% | binding result (human ASIC3): binds | binding result [2]: binds | EC50 (human ASIC1 [3]): 0.836 nM
B5: H4H6363P (antibody, V domains shown)
VH: EVQLLESGGGLVQPGGSLRLSCAASGFIFTNYAMTWLRQAPGKGLEWVSALSGSGGTTYYADSVKGRFTTSRDNSKNTLYLQMNSLRAEDTAVYYCAKDPHYYGSGNDYFYYYGLDVWGRGTTVTVSS
VL: not shown

binding result (human ASIC3): binds | binding result [2]: binds | EC50 (human ASIC1 [3]): 0.023 nM | FLIPR Dose Curve, pH 5.0 % Block (human ASIC1 [5]): 25% | FLIPR Dose Curve, pH 5.5 % Block (human ASIC1 [5]): 37% | FLIPR Dose Curve, pH 5.5 IC50 (human ASIC1 [5]): 1.1 nM
B6: H1M6716N (antibody, mouse IgG1, V domains shown)
VH: QVQLVQSGAEVKKPGASVKVSCKASGYTFTIYDINWVRQATGQGLEWMGWMNPRSGSTGYSQKFQGRVTMTRNTSINTAFMELSSLRSEDTAVYYCVRGQLVLGYWGQGTLVTVSS
VL: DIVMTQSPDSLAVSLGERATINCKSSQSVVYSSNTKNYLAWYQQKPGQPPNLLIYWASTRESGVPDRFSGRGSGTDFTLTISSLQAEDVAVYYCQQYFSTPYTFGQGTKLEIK
